Reference: IntAct's records for PubMed 20639859

B1: Serine/threonine-protein kinase Chk1 (Homo sapiens), O14757 (parent)
chain: MAVPFVEDWDLVQTLGEGAYGEVQLAVNRVTEEAVAVKIVDMKRAVDCPENIKKEICINKMLNHENVVKFYGHRREGNIQYLFLEYCSGGELFDRIEPDIGMPEPDAQRFFHQLMAGVVYLHGIGITHRDIKPENLLLDERDNLKISDFGLATVFRYNNRERLLNKMCGTLPYVAPELLKRREFHAEPVDVWSCGIVLTAMLAGELPWDQPSDSCQEYSDWKEKKTYLNPWKKIDSAPLALLHKILVENPSARITIPDIKKDRWYNKPLKKGAKRPRVTSGGVSESPSGFSKHIQSNLDFSPVNSASSEENVKYSSSQPEPRTGLSLWDTSPSYIDKLVQGISFSQPTCPDHMLLNSQLLGTPGSSQNPWQRLVKRMTRFFTKLDADKSYQCLKETCEKLGYQWKKSCMNQVTISTTDRRNNKLIFKVNLLEMDDKILVDFRLSKGDGLEFKRHFLKIKGKLIDIVSSQKIWLPAT
partner: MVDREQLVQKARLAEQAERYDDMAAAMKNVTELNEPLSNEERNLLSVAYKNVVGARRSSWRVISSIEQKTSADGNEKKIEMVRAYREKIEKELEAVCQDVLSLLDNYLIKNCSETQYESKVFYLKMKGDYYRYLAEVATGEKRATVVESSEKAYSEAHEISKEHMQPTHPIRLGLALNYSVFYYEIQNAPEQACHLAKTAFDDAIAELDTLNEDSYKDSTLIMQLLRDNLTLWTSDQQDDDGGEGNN

Variants of: B1
Details: with 1433g_human YWHAG

For MAVPFVEDWDLVQTLGEGAYGEVQLAVNRVTEEAVAVMIVDMKRAVDCPENIKKEICINKMLNHENVVKFYGHRREGNIQYLFLEYCSGGELFDRIEPDIGMPEPDAQRFFHQLMAGVVYLHGIGITHRDIKPENLLLDERDNLKISDFGLATVFRYNNRERLLNKMCGTLPYVAPELLKRREFHAEPVDVWSCGIVLTAMLAGELPWDQPSDSCQEYSDWKEKKTYLNPWKKIDSAPLALLHKILVENPSARITIPDIKKDRWYNKPLKKGAKRPRVTSGGVSESPSGFSKHIQSNLDFSPVNSASSEENVKYSSSQPEPRTGLSLWDTSPSYIDKLVQGISFSQPTCPDHMLLNSQLLGTPGSSQNPWQRLVKRMTRFFTKLDADKSYQCLKETCEKLGYQWKKSCMNQVTISTTDRRNNKLIFKVNLLEMDDKILVDFRLSKGDGLEFKRHFLKIKGKLIDIVSSQKIWLPAT [K38M], which “effect of a mutation on the interaction” value is on record?
The value was “disrupting interaction”.

Variants of: B1
Details: with 1433g_human YWHAG
Remark: another data set of the same source

How did the “effect of a mutation on the interaction” value turn out when MAVPFVEDWDLVQTLGEGAYGEVQLAVNRVTEEAVAVKIVDMKRAVDCPENIKKEICINKMLNHENVVKFYGHRREGNIQYLFLEYCSGGELFDRIEPDIGMPEPDAQRFFHQLMAGVVYLHGIGITHRDIKPENLLLDERDNLKISDFGLATVFRYNNRERLLNKMCGTLPYVAPELLKRREFHAEPVDVWSCGIVLTAMLAGELPWDQPSDSCQEYSDWKEKKTYLNPWKKIDSAPLALLHKILVENPSARITIPDIKKDRWYNKPLKKGAKRPRVTSGGVSESPSGFSKHIQANLDFSPVNSASSEENVKYSSSQPEPRTGLSLWDTSPSYIDKLVQGISFSQPTCPDHMLLNSQLLGTPGSSQNPWQRLVKRMTRFFTKLDADKSYQCLKETCEKLGYQWKKSCMNQVTISTTDRRNNKLIFKVNLLEMDDKILVDFRLSKGDGLEFKRHFLKIKGKLIDIVSSQKIWLPAT [S296A] was run?
Its value is “disrupting interaction”.
